In test [1] the target is 血清淀粉样蛋白A (Serum amyloid A, SAA), 购自Yashraj biotechnology limited, 货号FRSAA-61 (UniProt P0DJI8). The experiment in a line: biosensor with AMC sensors, antibody captured at 10 ug/ml, SAA in a dilution series in PBST.
For test [2], the target named is T1, 血清淀粉样蛋白A (Serum amyloid A, SAA), 购自Yashraj biotechnology limited, 货号FRSAA-61 (UniProt P0DJI8 19-122, limits assumed).
T1 construct: Bought antigen
T1 sequence (looked up): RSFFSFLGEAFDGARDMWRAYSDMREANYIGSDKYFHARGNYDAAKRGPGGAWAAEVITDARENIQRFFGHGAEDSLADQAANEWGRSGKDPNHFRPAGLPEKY
The test is described as above.

Where a chain is given by its changes, count along the chain named.

In test [1], 对照 (antibody) showed a Kd of 9.01 nM, a koff of 0.000219 s⁻¹ and a kon of 24300 M⁻¹ s⁻¹.

B1: Anti-SAA-11A4mut1 (antibody, mouse IgG1, kappa, V domains shown)
VH: QVQLQQSGAELVRPGVSVKISCKGSGYTFTDYAMHWVKQSHAKSLEWIGVINTYYGDASYNQKFKGKATMTEDKSSSTVYMELARLTSEDSAIYYCARGSSIMITSWFAYWGQGTLVTVSA
VL: DIQMTQSPASLSASVGETVTITCRASENIYSYLAWYQQKQGKSPQLLVYNAKTLAEGVPSRFSGSGSGTQFSLKINSLQPEDFGSYYCQHHYGTPLTFGTGTKLELKR
Take B1: in test [2], the Kd is 0.0322 nM, the koff stood at 1.12e-06 s⁻¹ and the kon came out at 34800 M⁻¹ s⁻¹.

B2: Anti-SAA-11A4mut3 (antibody, V domains shown)
VH: B1 VH
VL: B1 VL with L96I
In test [2], B2 had a Kd of 0.0386 nM, an off-rate constant (koff) of 1.3e-06 s⁻¹ and an on-rate constant (kon) of 33700 M⁻¹ s⁻¹.

B3: Anti-SAA-11A4mut2 (antibody, mouse IgG1, kappa, V domains shown)
VH: B1 VH with I102L
VL: B1 VL
B3: in test [2], the Kd came out at 0.827 nM, the off-rate constant (koff) was 3.05e-05 s⁻¹ and the kon was 36900 M⁻¹ s⁻¹.

Values taken from CN116836274A (DONGGUAN PENGZHI BIOTECHNOLOGY CO LTD, dated 2023).
